This is an account of results in paper PMC8810934.

For the assay, the target named is F-actin in live HEK293T cells (human (endogenous in HEK293T)) (UniProt P60709). The experiment in a line: FRET or BRET; live HEK293T cells co-transfected with ABD-mEGFP (donor) and Lifeact-mCherry (acceptor, on actin filaments); harvested 24 h after transfection; FRET efficiency from mEGFP fluorescence lifetime (time-correlated single photon counting); n = 3. In general terms: Bioluminescence resonance energy transfer reports proximity on the nanometre scale.

Consider “L253P β-III-spectrin ABD fused at the C-terminus to mEGFP (domain or fragment)”, for which the FRET efficiency came out at 8.4%.
